Assay results from patent US20220340642A1 (Kyowa Kirin, published 2022).

T1: soluble recombinant of cynomolgus monkey FasL (His6, Pro133-Leu280) (cynomolgus monkey, UniProt P63308 133-280)
T1 construct: also called His6-cynoFasL
T1 sequence: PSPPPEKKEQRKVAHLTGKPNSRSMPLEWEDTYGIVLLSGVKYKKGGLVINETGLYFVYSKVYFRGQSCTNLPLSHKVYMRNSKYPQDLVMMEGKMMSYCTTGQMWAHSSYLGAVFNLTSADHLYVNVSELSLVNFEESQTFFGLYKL

T2: soluble recombinant of human TL1A (His6, GS linker, Leu72-Leu251) (human, UniProt O95150 72-251)
T2 construct: also called His6-TL1A; hTL1A
T2 sequence: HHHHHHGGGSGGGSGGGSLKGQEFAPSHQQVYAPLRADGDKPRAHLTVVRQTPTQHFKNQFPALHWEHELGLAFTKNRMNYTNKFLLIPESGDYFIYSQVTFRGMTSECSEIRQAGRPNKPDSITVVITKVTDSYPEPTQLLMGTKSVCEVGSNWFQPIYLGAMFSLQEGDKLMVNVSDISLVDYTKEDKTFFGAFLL

T3: FLAG-cynoLIGHT (FLAG tag, cynomolgus monkey LIGHT Asp74-Val240) (cynomolgus monkey)
T3 construct: SEC trimer fraction; also called soluble cynomolgus monkey LIGHT trimer
T3 chain: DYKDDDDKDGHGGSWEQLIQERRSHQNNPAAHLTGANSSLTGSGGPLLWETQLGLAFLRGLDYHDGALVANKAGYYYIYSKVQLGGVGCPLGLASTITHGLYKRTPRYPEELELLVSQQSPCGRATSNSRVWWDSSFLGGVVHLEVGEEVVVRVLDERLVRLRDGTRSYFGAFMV

T4: soluble recombinant of cynomolgus monkey TL1A (His6, GS linker, Leu72-Leu251) (cynomolgus monkey)
T4 construct: also called His6-cynoTL1A
T4 chain: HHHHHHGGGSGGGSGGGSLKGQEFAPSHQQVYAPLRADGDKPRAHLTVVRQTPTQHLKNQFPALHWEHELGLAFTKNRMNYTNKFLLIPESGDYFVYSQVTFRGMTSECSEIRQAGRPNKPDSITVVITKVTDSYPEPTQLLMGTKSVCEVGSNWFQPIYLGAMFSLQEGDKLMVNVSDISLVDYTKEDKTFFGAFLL

T5: Human His6 Fas Ligand/TNFSF6 (Cell Signaling Technology, Inc.) (human, UniProt P48023 133-281)
T5 construct: Bought; confirmed as a trimer by SEC-MALS; also called recombinant human His6 Fas Ligand; soluble human FasL trimer
T5 sequence: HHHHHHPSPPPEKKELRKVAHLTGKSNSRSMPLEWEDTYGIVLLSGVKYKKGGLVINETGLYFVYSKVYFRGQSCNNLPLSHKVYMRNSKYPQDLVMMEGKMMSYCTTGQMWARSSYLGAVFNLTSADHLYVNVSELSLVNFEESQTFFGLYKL

T6: soluble recombinant of cynomolgus monkey TL1A (His6, GS linker, Leu72-Leu251)
T6 chain: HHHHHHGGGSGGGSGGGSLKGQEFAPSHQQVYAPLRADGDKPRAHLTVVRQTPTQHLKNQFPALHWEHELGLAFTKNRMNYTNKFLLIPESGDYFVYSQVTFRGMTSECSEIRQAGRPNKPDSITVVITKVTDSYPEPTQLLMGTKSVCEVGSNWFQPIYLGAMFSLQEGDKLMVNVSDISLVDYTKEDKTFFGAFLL

T7: soluble recombinant of cynomolgus monkey LIGHT (His10, GS linker, Asp74-Val240)
T7 chain: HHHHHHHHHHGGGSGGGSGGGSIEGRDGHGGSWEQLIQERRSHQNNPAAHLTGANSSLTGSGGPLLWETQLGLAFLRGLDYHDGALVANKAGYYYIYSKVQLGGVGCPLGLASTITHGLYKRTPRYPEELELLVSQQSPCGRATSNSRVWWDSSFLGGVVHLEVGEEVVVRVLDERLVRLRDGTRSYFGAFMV

T8: soluble recombinant of cynomolgus monkey FasL (His6, Pro133-Leu280) (UniProt P63308 133-280)
T8 chain: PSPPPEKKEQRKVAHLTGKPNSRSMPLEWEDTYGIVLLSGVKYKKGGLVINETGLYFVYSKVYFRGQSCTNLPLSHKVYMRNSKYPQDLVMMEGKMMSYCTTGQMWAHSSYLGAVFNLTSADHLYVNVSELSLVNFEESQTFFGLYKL

T9: soluble recombinant of human LIGHT (His10, GS linker, Asp74-Val240)
T9 chain: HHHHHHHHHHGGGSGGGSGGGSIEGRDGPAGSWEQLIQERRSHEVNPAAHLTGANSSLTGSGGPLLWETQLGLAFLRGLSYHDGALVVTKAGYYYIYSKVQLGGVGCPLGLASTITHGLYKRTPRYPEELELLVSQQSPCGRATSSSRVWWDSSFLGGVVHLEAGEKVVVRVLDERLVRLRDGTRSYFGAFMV

B1: chimera A-E57K_R58D-Fc (Eg1S LALAGANA) (Fc fusion)
chain: ETFPPKYLHYDEETSHQLLCDKCPPGTYLKQHCTAKWKTVCAPCPPRHYTQFWNYLKDCRYCNVLCGEREEEARACHATHNRACRCRTGFFAHAGFCLEHASCPPGAGVIAPGTPSQNTQCQPCPDGFFSNETSSKAPCRKHTNCSVFGLLLTQKGNATHDNICSGNSESTQKEPKSSDKTHTCPPCPAPEAAGAPSVFLFPPKPKDTLMISRTPEVTCVVVDVSHEDPEVKFNWYVDGVEVHNAKTKPREEQYNSTYRVVSVLTVLHQDWLNGKEYKCKVSNKALPAPIEKTISKAKGQPREPQVYTLPPSRDELTKNQVSLTCLVKGFYPSDIAVEWESNGQPENNYKTTPPVLDSDGSFFLYSKLTVDKSRWQQGNVFSCSVMHEALHAHYTQKSLSLSPGK
B2: chimera A-Fc (Eg1S YTE) (Fc fusion)
chain: ETFPPKYLHYDEETSHQLLCDKCPPGTYLKQHCTAKWKTVCAPCPPRHYTQFWNYLERCRYCNVLCGEREEEARACHATHNRACRCRTGFFAHAGFCLEHASCPPGAGVIAPGTPSQNTQCQPCPDGFFSNETSSKAPCRKHTNCSVFGLLLTQKGNATHDNICSGNSESTQKEPKSSDKTHTCPPCPAPELLGGPSVFLFPPKPKDTLYITREPEVTCVVVDVSHEDPEVKFNWYVDGVEVHNAKTKPREEQYNSTYRVVSVLTVLHQDWLNGKEYKCKVSNKALPAPIEKTISKAKGQPREPQVYTLPPSRDELTKNQVSLTCLVKGFYPSDIAVEWESNGQPENNYKTTPPVLDSDGSFFLYSKLTVDKSRWQQGNVFSCSVMHEALHNHYTQKSLSLSPGK
B3: chimera A-E57K_R58D-Fc (Eg1S YTE) (Fc fusion)
chain: ETFPPKYLHYDEETSHQLLCDKCPPGTYLKQHCTAKWKTVCAPCPPRHYTQFWNYLKDCRYCNVLCGEREEEARACHATHNRACRCRTGFFAHAGFCLEHASCPPGAGVIAPGTPSQNTQCQPCPDGFFSNETSSKAPCRKHTNCSVFGLLLTQKGNATHDNICSGNSESTQKEPKSSDKTHTCPPCPAPELLGGPSVFLFPPKPKDTLYITREPEVTCVVVDVSHEDPEVKFNWYVDGVEVHNAKTKPREEQYNSTYRVVSVLTVLHQDWLNGKEYKCKVSNKALPAPIEKTISKAKGQPREPQVYTLPPSRDELTKNQVSLTCLVKGFYPSDIAVEWESNGQPENNYKTTPPVLDSDGSFFLYSKLTVDKSRWQQGNVFSCSVMHEALHNHYTQKSLSLSPGK
notes: also called 45-10-Fc (Eg1S YTE)
B4: chimera A-E57K_R58E-Fc (Eg1S YTE) (Fc fusion)
chain: ETFPPKYLHYDEETSHQLLCDKCPPGTYLKQHCTAKWKTVCAPCPPRHYTQFWNYLKECRYCNVLCGEREEEARACHATHNRACRCRTGFFAHAGFCLEHASCPPGAGVIAPGTPSQNTQCQPCPDGFFSNETSSKAPCRKHTNCSVFGLLLTQKGNATHDNICSGNSESTQKEPKSSDKTHTCPPCPAPELLGGPSVFLFPPKPKDTLYITREPEVTCVVVDVSHEDPEVKFNWYVDGVEVHNAKTKPREEQYNSTYRVVSVLTVLHQDWLNGKEYKCKVSNKALPAPIEKTISKAKGQPREPQVYTLPPSRDELTKNQVSLTCLVKGFYPSDIAVEWESNGQPENNYKTTPPVLDSDGSFFLYSKLTVDKSRWQQGNVFSCSVMHEALHNHYTQKSLSLSPGK
notes: also called 45-18-Fc (Eg1S YTE)
B5: chimera A-Fc (Eg1S LALAGANA) (Fc fusion)
chain: ETFPPKYLHYDEETSHQLLCDKCPPGTYLKQHCTAKWKTVCAPCPPRHYTQFWNYLERCRYCNVLCGEREEEARACHATHNRACRCRTGFFAHAGFCLEHASCPPGAGVIAPGTPSQNTQCQPCPDGFFSNETSSKAPCRKHTNCSVFGLLLTQKGNATHDNICSGNSESTQKEPKSSDKTHTCPPCPAPEAAGAPSVFLFPPKPKDTLMISRTPEVTCVVVDVSHEDPEVKFNWYVDGVEVHNAKTKPREEQYNSTYRVVSVLTVLHQDWLNGKEYKCKVSNKALPAPIEKTISKAKGQPREPQVYTLPPSRDELTKNQVSLTCLVKGFYPSDIAVEWESNGQPENNYKTTPPVLDSDGSFFLYSKLTVDKSRWQQGNVFSCSVMHEALHAHYTQKSLSLSPGK

How the values were obtained:
[1] = biological target: T1, soluble recombinant of cynomolgus …; experiment: SPR, binder captured on Protein A chip
Description: (§1) The binding activity to human and cynomolgus monkey DcR3 ligand trimers were analyzed by the SPR method. BIAcore T-100 (GE Healthcare) was used for measurement of the binding activities to human LIGHT, cynomolgus monkey LIGHT, human TL1A and cynomolgus monkey TL1A, and BIAcore T-200 (GE Healthcare) was used for measurement of the binding activities to human FasL and cynomolgus monkey FasL. As the buffer, HBS-EP+Buffer was used.
(§2) Various DcR3 variants were injected into Series S Sensor Chip Protein A (GE Healthcare) at 10 μL/min for 30 seconds and captured. Meanwhile, the buffer containing no protein was injected into a reference flow cell. Thereafter, as an analyte, each human DcR3 ligand trimer or each cynomolgus monkey DcR3 ligand trimer diluted to 0.08 to 20 nmol/L was injected. A human LIGHT trimer, a human TL1A trimer or each cynomolgus monkey DcR3 ligand trimer was injected at the flow rate of 30 μL/min for 2 minutes to monitor the binding, and subsequently the buffer was injected for 5 minutes to monitor dissociation. A human FasL trimer was injected at 30 μL/min for 1 minute to monitor the binding, and subsequently the buffer was injected for 3 minutes to monitor dissociation. Then, 3 mol/L magnesium chloride was injected at 30 μL/min for 1 minute to perform a regeneration reaction.

[2] = biological target: T2, soluble recombinant of human TL1A …; experiment: SPR, binder captured on Protein A chip
Description: as §1, §2

[3] = biological target: T3, FLAG-cynoLIGHT (FLAG tag, cynomolgus …); experiment: SPR, binder captured on Protein A chip
Description: as §1, §2

[4] = biological target: T10, FLAG-LIGHT (FLAG tag, human LIGHT Asp74-Val240) (human, UniProt O43557 74-240); experiment: SPR, binder captured on Protein A chip
T10 construct: SEC trimer fraction; also called soluble recombinant FLAG-LIGHT trimer; soluble human LIGHT trimer
Description: as §1, §2

[5] = biological target: T4, soluble recombinant of cynomolgus …; experiment: SPR, binder captured on Protein A chip
Description: as §1, §2

[6] = biological target: T5, Human His6 Fas Ligand/TNFSF6 (Cell …); experiment: SPR, binder captured on Protein A chip
Description: as §1, §2

[7] = biological target: T6, soluble recombinant of cynomolgus …; experiment: BIAcore SPR
In short: (§3)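 Dissociation constants (Kd, nM) come from surface plasmon resonance measurements on a BIAcore T-100 or T-200 instrument (GE Healthcare) in HBS-EP+ Buffer. Each test molecule was analysed for binding to soluble recombinant His-tagged human or cynomolgus monkey LIGHT, TL1A or FasL.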

[8] = biological target: T7, soluble recombinant of cynomolgus …; experiment: BIAcore SPR
In short: as §3

[9] = biological target: T8, soluble recombinant of cynomolgus …; experiment: BIAcore SPR
In short: as §3

[10] = biological target: T9, soluble recombinant of human LIGHT …; experiment: BIAcore SPR
In short: as §3

Binder	binding result [1]	binding result [2]	binding result [3]	binding result [4]	binding result [5]	binding result [6]	Kd [7] [nM]	Kd [8] [nM]	Kd [9] [nM]	Kd [10] [nM]
B1	binds	binds	binds	binds	binds	binds	0.19	0.3	0.96	0.3
B2	binds	binds	binds	binds	binds	binds	0.17	0.28	0.27	0.27
B3	binds	binds	binds	binds	binds	binds	0.25	0.31	1.2	0.4
B4	binds	binds	binds	binds	binds	binds	0.21	0.35	1.2	0.33
B5	binds	binds	binds	binds	binds	binds	0.11	0.21	0.22	0.2
